We go through 4 molecules from patent US10662230B2, “Cyclic RGD cell-binding motif and uses thereof” (Spiber Technologies AB, priority 2015, dated 2020).

What all share (format): cell-based
The test system of experiment [1] is Normal human epidermal keratinocytes (KC). The experiment can be described thus: Early attachment assay, keratinocytes on silk films. The conditions noted are these: for adhesion in each individual experiment: KC on tested silk films. The procedure:
Normal human epidermal keratinocytes from adult skin (NHEK-ad) were purchased from Lonza. Subculture, proliferation and migration experiments were done in KGM-Gold (Lonza), containing bovine pituitary extract, whereas adhesion experiments were performed in KGM-CD (chemically defined), supplemented with CaCl2) to give 1.2 mM Ca^2+.
Cells were harvested at passage 3-8, seeded at 20 000/cm^2 and allowed to adhere to the films or controls for 1 h in a cell incubator before gentle washing twice with pre-warmed phosphate buffered saline (PBS) followed by 10 min fixation with 96% ethanol. After three washings in water, cells were stained for 30 min with 0.1% Crystal Violet in H2O. Plates were dried after extensive washing in water.
Attachment and morphology of cells bound to the films obtained in Example 3 were documented by taking micrographs at 2× and 10× magnification in an inverted bright field microscope. The color was then dissolved in 40 μL 20% acetic acid for 10 min, and 35 μL of the solution was transferred to a 384-well plate for optical density measurement at 595 nm (TECAN Infinite M200). Wells with cells fixed without pre-washing was used as positive control. Wells with no cells were used as blank. Experiments were run in hexaplicates and repeated three times.
Determination of cell coverage area within a defined region (9.12 mm^2) of the micrographs (at 2× magnification) was done using the software NIS elements BR (Nikon).
After seeing this positive effect of the introduced FNCC motif, we wanted to find out how well the FNCC-silk would compare to native, full length fibronectin, where the RGD is presented on a turn loop constrained by the structure. We therefore used fibronectin from bovine plasma (BFN) to coat cell culture wells, as well as naked cell culture treated plastic (TCT), on which KC can be cultured, as a control. Serum-free experimental conditions was chosen to avoid possible interactions between the matrices and serum proteins that potentially could give rise to increased cell adherence.
For this purpose, we used two FN-silk variants where a linear RGD presentation is expected (FIG. 1a). The first variant (FNVS; SEQ ID NO: 15), contains the original sequence of the RGD-containing motif in fibronectin, to show the effect of the native flanking amino acids without influence of the loop conformation. In the second variant (FNSS; SEQ ID NO: 14), the two flanking cysteines in FNCC were substituted for serine, which resembles cysteine but lacks the —SH-group and is therefore unable to form disulfide bridges. The different FN-silk variants, as well as RGD-silk (SEQ ID NO: 16) and WT-silk (SEQ ID NO: 2), were evaluated with primary KC. Cells were analyzed both for early attachment (FIG. 5), spreading and formation of stress fibers (FIG. 6), and focal adhesions (FIG. 7). Early attachment assay and cellular stainings were performed as detailed in Example 6.

Experiment [2] has the same test system. The experiment can be described thus: Cell spreading by F-actin staining, keratinocytes. The conditions noted are these: 3 h adhesion; for spreading of KC (total cell area in 4× micrographs): seeding 3 500/cm^2. The procedure:
Cells were harvested at passage 3-8, seeded at 3500/cm^2 and allowed to adhere onto films for 20 min, 1 or 3 hours in chamber slides. After gentle washing, cells were fixed with 4% paraformaldehyde, permeabilized with 0.1% Triton X-100 in PBS, and blocked with 1% bovine serum albumin (BSA, AppliChem) in PBS. Secondary antibody was AlexaFlour488 goat anti mouse IgG (H+L), cross adsorbed (Invitrogen), used at 1:500. Phalloidin-AlexaFluor594 (Life Technologies) were used at 1:40 to detect filamentous actin. DAPI was used for nuclear staining. Slides were mounted in Fluorescence mounting medium (Dako, Copenhagen). The stained cells were analyzed using an inverted microscope (Nikon Eclipse Ti) at 4× and 10× magnification. Excitation at 563/45 nm and detection at 625/50 nm was used for red fluorescence, whereas excitation with 387/11 nm and detection at 447/60 nm was used to monitor blue fluorescence. By staining for F-actin, cell spreading and formation of stress fibers in KC after 3 h adhesion were investigated (FIG. 6).

Experiment [3] shares this test system. As to the kind of experiment: Formation of focal adhesions (F-actin/vinculin staining), keratinocytes. As to conditions: 3 h adherence, 63× magnification. The procedure:
Cells were harvested at passage 3-8, seeded at 3500/cm^2 and allowed to adhere onto films for 20 min, 1 or 3 hours in chamber slides. After gentle washing, cells were fixed with 4% paraformaldehyde, permeabilized with 0.1% Triton X-100 in PBS, and blocked with 1% bovine serum albumin (BSA, AppliChem) in PBS.
Primary antibody were used at the following concentrations in 1% BSA: mouse anti human vinculin (Sigma V9131) at 9.5 μg/ml, mouse-anti human beta1-integrin (activated conformation, clone HUTS-4) at 3.3 μg/mL, or mouse-anti human alpha5-integrin (ligand bound conformation, clone SNAKA-51) at 2.5 μg/mL, both Millipore.
Secondary antibody was AlexaFlour488 goat anti mouse IgG (H+L), cross adsorbed (Invitrogen), used at 1:500. Phalloidin-AlexaFluor594 (Life Technologies) were used at 1:40 to detect filamentous actin. DAPI was used for nuclear staining. Slides were mounted in Fluorescence mounting medium (Dako, Copenhagen).
For microscopic analysis of cell adhesion (formation of focal adhesions and stress fibers), a confocal microscope was used (Carl Zeiss LSM 710) at 10× and 63× magnification.
Quality of focal adhesions were graded from 1-4 regarding presence of small and dim focal adhesion (=1p), small and distinct focal adhesions (=2p), abundant focal adhesions (=3p) and large and bright focal adhesions (=4p), and multiplied with the portion of positive cells expressing this specific type of focal adhesions (0-4, where 0≈none of, 1≈one fourth of, 2≈half of, 3≈three fourths of, and 4≈all of the focal adhesion-positive cells.)
Formation of focal adhesions within the cells was analyzed after 3 h by staining for F-actin in combination with vinculin, which is one of the major components of the focal adhesion complex. Co-staining of F-actin and vinculin is thus a sign of integrin-involved, well established binding of cells to the underlying substrate. Focal adhesions appear as yellow-greenish elongations of the F-actin filaments, often situated close to the cell membrane.
The results from the analysis of formation and characterization of focal adhesions in KC after adherence for 3 h onto films of WT-silk (SEQ ID NO: 2) or silk functionalized with FNCC (SEQ ID NO: 13), FNVS (SEQ ID NO: 15), FNSS (SEQ ID NO: 14) or RGD (SEQ ID NO: 16) is presented in FIG. 7. Slides were scanned with a confocal microscope at 10× for overview (FIG. 7a) and at 63× for details (FIG. 7b). Two types of grading of the focal adhesions in the cells were performed.

For the molecule “BFN: fibronectin from bovine plasma (Sigma-Aldrich F1137), coated at 5 μg/cm^2 [reference compound]”, in experiment [1] (KC, 1 h adhesion, comparison with bovine fibronectin coating and TCT plastic, serum-free), the “cell coverage area within a defined region (9.12 mm^2)” value is “bound equally well to the BFN and the FNCC-silk after 1 h adherence, and importantly both significantly better than TCT”.

B1: FNSS-silk: 4RepCT silk with linear control motif STGRGDSPAS (SEQ ID NO: 11), cysteines substituted for serines (protein)
chain: GPNSSTGRGDSPASGSASGQGGYGGLGQGGYGQGAGSSAAAAAAAAAAAAGGQGGQGQGGYGQGSGGSAAAAAAAAAAAAAAAGRGQGGYGQGSGGNAAAAAAAAAAAAAAAGQGGQGGYGRQSQGAGSAAAAAAAAAAAAAAGSGQGGYGGQGQGGYGQSSASASAAASAASTVANSVSRLSSPSAVSRVSSAVSSLVSNGQVNMAALPNIISNISSSVSASAPGASGCEVIVQALLEVITALVQIVSSSSVGYINPSAVNQITNVVANAMAQVMG
modifications: Fusion protein
For the molecule B1, in experiment [2], the “cell morphology (F-actin)” value is listed as “a higher proportion of cells with a rounded appearance” and the “spreading of KC (total cell area in 4× micrographs)” value is reported as “but not FNSS or FNVS films, gave a significantly increased spreading of KC compared to RGD-film”. Also, the “adhesion in each individual experiment” value in experiment [1] was “varied from being similar to RGD-silk to being only somewhat lower than on FNCC-silk”. In experiment [3], the “quality (grading) of focal adhesions” value was “both prominent and subtle focal adhesions”.

B2: FNVS-silk: 4RepCT silk with original fibronectin motif VTGRGDSPAS (SEQ ID NO: 9), linear native control (protein)
chain: GPNSVTGRGDSPASGSASGQGGYGGLGQGGYGQGAGSSAAAAAAAAAAAAGGQGGQGQGGYGQGSGGSAAAAAAAAAAAAAAAGRGQGGYGQGSGGNAAAAAAAAAAAAAAAGQGGQGGYGRQSQGAGSAAAAAAAAAAAAAAGSGQGGYGGQGQGGYGQSSASASAAASAASTVANSVSRLSSPSAVSRVSSAVSSLVSNGQVNMAALPNIISNISSSVSASAPGASGCEVIVQALLEVITALVQIVSSSSVGYINPSAVNQITNVVANAMAQVMG
modifications: Fusion protein
Consider B2, for which, in experiment [2], the “cell morphology (F-actin)” value was “a higher proportion of cells with a rounded appearance” and the “spreading of KC (total cell area in 4× micrographs)” value is given as “but not FNSS or FNVS films, gave a significantly increased spreading of KC compared to RGD-film”. Further, in experiment [1], the “adhesion in each individual experiment” value is reported as “varied from being similar to RGD-silk to being only somewhat lower than on FNCC-silk”. The “quality (grading) of focal adhesions” value in experiment [3] was “both prominent and subtle focal adhesions”.

B3: RGD-silk: 4RepCT silk with the linear RGD containing peptide (SEQ ID NO 12) of Widhe et al. (2013) (protein)
chain: GPNSRGDAGAASGQGGYGGLGQGGYGQGAGSSAAAAAAAAAAAAGGQGGQGQGGYGQGSGGSAAAAAAAAAAAAAAAGRGQGGYGQGSGGNAAAAAAAAAAAAAAAGQGGQGGYGRQSQGAGSAAAAAAAAAAAAAAGSGQGGYGGQGQGGYGQSSASASAAASAASTVANSVSRLSSPSAVSRVSSAVSSLVSNGQVNMAALPNIISNISSSVSASAPGASGCEVIVQALLEVITALVQIVSSSSVGYINPSAVNQITNVVANAMAQVMG
modifications: Fusion protein
Consider B3, for which the “cell morphology (F-actin)” value in experiment [2] was “a higher proportion of cells with a rounded appearance”. In addition, the “quality (grading) of focal adhesions” value in experiment [3] was “variation of focal adhesion quality is larger in cells on RGD, FNSS and FNVS than on FNCC-silk”.
